# Measured values reported in patent publication US20240148885A1, “TARGETED BIFUNCTIONAL DEGRADERS” (YALE UNIVERSITY, priority 2021, published 2024).
# Like-named read-outs stand apart in the source and are kept apart here.
# Columns and labels:
# [1] = molecular target: streptavidin AF488 (Streptomyces avidinii, UniProt P22629); assay: Degradation of streptavidin AF488 (FIG. 12); assay type: cell-based
# Description: Some studies have been done on other bifunctional molecules comprising an LRP1 binding motif depicted in FIG. 2 and a biotin Target binding motif, wherein these bifunctional molecules also noncovalently bind streptavidin (FIG. 11).
# [2] = molecular target: streptavidin AF647 (Streptomyces avidinii, UniProt P22629); assay: Saturable delivery (uptake) of streptavidin AF647 (FIG. 6); assay type: cell-based; details: increasing concentration of bifunctional molecule, cells not given
# [3] = molecular target: streptavidin (Streptomyces avidinii, UniProt P22629); assay: ELISA: biotinylated Angiopep-2 binding to streptavidin (FIG. 7)
# [4] = test system: astrocytes; assay: Cellular assay: internalization of streptavidin in astrocytes (FIG. 9); assay type: cell-based; details: noncovalently bound cargo
# [5] = test system: murine brain endothelial cells; details: noncovalently bound streptavidin AF647 cargo, FIG. 8, FIG. 9
# Chain of streptavidin AF488 (P22629 25-183): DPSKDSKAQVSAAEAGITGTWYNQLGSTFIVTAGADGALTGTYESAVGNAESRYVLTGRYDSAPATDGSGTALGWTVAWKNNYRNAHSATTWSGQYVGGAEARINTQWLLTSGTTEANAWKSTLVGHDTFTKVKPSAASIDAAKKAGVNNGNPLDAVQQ
# Chain of streptavidin (P22629 25-183, species assumed): as the sequence (P22629 25-183) above
# Chain of streptavidin AF647 (P22629 25-183): as above
Substance,degradation of target protein streptavidin AF488 [1],level of streptavidin AF647 uptake [2],binding to streptavidin (ELISA) [3],internalization of streptavidin into astrocytes [4],delivery / internalization of streptavidin into brain endothelial cells [5],delivery / internalization of streptavidin into brain endothelial cells ([5]; listed as Angiopep-2-Biotin)
Ac.Ac.Biotin Angiopep-2: Angiopep-2 modified via acetylation and bonded to a biotin Target binding motif,mediated degradation of streptavidin AF488,–,–,–,–,–
biotinylated Angiopep-2,–,saturable delivery of streptavidin AF647,binds streptavidin,mediated internalization of target protein Streptavidin,delivers streptavidin AF647 to murine brain endothelial cells,mediated internalization of target protein Streptavidin
